The source of these data is the supplement of paper PMC10567573.

The series is described as follows: protein stability index of a GFP-peptide fusion (GPS, HEK-293T) (PSI 1-6); higher = more stable.
[1] abbreviates: treatment: DMSO, c terminus: a fixed tail appended.
[2] abbreviates: treatment: MLN4924 1 uM, 8 h, c terminus: a fixed tail appended.

± gives the standard deviation.
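Further: 24-mer peptide tiles fused after GFP, lentivirally expressed, FACS-sorted into six equal bins by GFP/DsRed ratio, decoded by Illumina sequencing, PSI is the read-weighted mean bin number.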

Regarding LMSLQNQLKESKSKIDALSSEKLN [CEP70], the protein stability index runs as follows: under setting [1], 4.13 ± 0.15; under setting [2], 4.05 ± 0.19.

Turning to LNFWNKQDTLELESPSLTSTPVCS [MYBL2], the protein stability index worked out at 3.58 ± 0.12 under setting [1] and 3.63 ± 0.2 under setting [2].

With LNMFLAIINDTYSEVKEELAGQKD [PKD2L1], the protein stability index runs as follows: under setting [1], 2.21 ± 0.3; under setting [2], 2.37 ± 0.43.

Take LPLRVSFCPLSLWRWQLYAAQSTK [CLPTM1]: the protein stability index reads like this: under setting [1], 2.31 ± 0.29; under setting [2], 2.24 ± 0.7.

LPPNNSYADFERFSKVLEEAAAAE [DAPK3]: the protein stability index under setting [1] was found to be 4.95 ± 0.57 and the protein stability index under setting [2] worked out at 5.07 ± 0.058.

LQARERGEEQVELSTIEELIKDAI [C2CD2L] returned a protein stability index under setting [1] of 4.14 ± 0.084 and a protein stability index under setting [2] of 4.13 ± 0.19.

With LQGVRLSENVVNRMKEPSSPPPAP [CHCHD6], the protein stability index by setting is: under setting [1], 4.62 ± 0.32; under setting [2], 4.939 ± 0.047.

Regarding LQHMKAVQADQERERQRRLEVERE [LRRC59], the protein stability index by setting is: under setting [1], 5.24 ± 0.33; under setting [2], 5.09 ± 0.27.

LQRHADEFLLDLGHHERSIMTDLY [FUT8]: the protein stability index was 2.55 ± 0.21 under setting [1] and 2.69 ± 0.26 under setting [2].

Consider LQRLRENAAHLGDKRRDLAHLAAE [TRIM39], for which the protein stability index under setting [1] was 4.13 ± 0.31 and the protein stability index under setting [2] was determined as 3.82 ± 0.28.

For LQSEPHRAGVQWKFAGSFYFAITV [KCNK9], the protein stability index came out at 3.47 ± 0.43 under setting [1] and 2.82 ± 0.81 under setting [2].

In the case of LQYILAQIGFSVGLGNIWRFPYLC [SLC6A17], the protein stability index by setting is: under setting [1], 2.27 ± 0.16; under setting [2], 2.88 ± 0.31.

Turning to LRALREKLFAHSSDLLSEFKKHDA [PPEF2], the protein stability index runs as follows: under setting [1], 2.1 ± 0.33; under setting [2], 2.29 ± 0.42.

Turning to LRRRLEELQQELSLKDQERVAEVS [LRRC45], the protein stability index by setting is: under setting [1], 4.07 ± 0.42; under setting [2], 3.89 ± 0.32.

Take LSLCICGTAITSQYLAERYKVNTP [SLC35F2]: the protein stability index is 2.83 ± 0.51 under setting [1] and 2.63 ± 0.42 under setting [2].

Take LSLLDNNIPGNSTLITAVELERFV [FBXO33]: the protein stability index was found to be 2.44 ± 0.95 under setting [1] and 2.36 ± 0.15 under setting [2].

On to LSLPYLPSGTPELEVPKPGQPSEP [CHIT1], for which the protein stability index reads like this: under setting [1], 5.09 ± 0.22; under setting [2], 5.21 ± 0.15.

In turn, LSPPEQAAQPMQPLPESLASLHPS [PLAGL1] came in with a protein stability index under setting [1] of 5.12 ± 0.16 and a protein stability index under setting [2] of 4.93 ± 0.31.

On to LSPVLESPRDLQFSEIRETSAKVN [TNXB], for which the protein stability index turned out to be 4.9 ± 0.12 under setting [1] and 5.02 ± 0.34 under setting [2].

For LSQLSSHDPLWRRHCKKYWLISEE [FBXO3], the protein stability index under setting [1] was 2.54 ± 0.069 and the protein stability index under setting [2] was found to be 2.67 ± 0.4.

Take LSRTNEELLWKLQTGDPTSPIKLS [MTUS2]: the protein stability index is 3.49 ± 0.12 under setting [1] and 3.35 ± 0.25 under setting [2].

Take LSTNDKTIKLWKITERDKRPEGYN [PPP2R2C]: the protein stability index by setting is: under setting [1], 3.6 ± 0.28; under setting [2], 3.79 ± 0.61.

For the sequence LSWLVWLLLLLLASLLPSARLASP [ADAMTS4], the protein stability index is, setting by setting: under setting [1], 2.99 ± 0.65; under setting [2], 2.5 ± 0.3.

For LTGVLCSYPNPNEDKCPGNYTNPL [TMEM192], the protein stability index was determined as 3.26 ± 0.19 under setting [1] and 3.36 ± 0.25 under setting [2].

LTRAGMSYYNSPGLHVQHMGTSHG [CCDC6]: the protein stability index runs as follows: under setting [1], 2.67 ± 0.2; under setting [2], 2.81 ± 0.12.

Consider LVPKTHLMSESEWRNLGVQQSQGW [CKS1B], for which the protein stability index under setting [1] is 2.64 ± 0.32 and the protein stability index under setting [2] amounted to 2.86 ± 0.2.

Take LVSVYPDKYCPLLIKEGGMPLLRD [ZER1]: the protein stability index came out at 2.38 ± 0.23 under setting [1] and 2.42 ± 0.29 under setting [2].

In the case of LYKALGAQDLTEAEGWHFFCFQGE [SAT2], the protein stability index under setting [1] amounted to 2.5 ± 0.27 and the protein stability index under setting [2] was determined as 2.29 ± 0.43.

For the sequence MAAAAEERMAEEGGGGQGDGGSSL [FBXO28], the protein stability index under setting [1] came to 5.45 ± 0.29 and the protein stability index under setting [2] turned out to be 5.57 ± 0.33.

Turning to MAAGNTVIAKPSELTSVTAWMLCK [ALDH8A1], the protein stability index stood at 2.44 ± 0.1 under setting [1] and 2.35 ± 0.23 under setting [2].

As to MASPPRCSPTAHDRECKLPPPSAP [WDR88], the protein stability index is, setting by setting: under setting [1], 4.67 ± 0.25; under setting [2], 4.83 ± 0.24.

Take MATYLRYVRRLDFFEKPDYDYLRK [CSNK1G3]: the protein stability index by setting is: under setting [1], 2.31 ± 0.42; under setting [2], 2.32 ± 0.12.

MCFGPKKVKPAEAETAGAIMAFFL [SLC29A1]: the protein stability index runs as follows: under setting [1], 2.42 ± 0.45; under setting [2], 2.13 ± 0.21.

For the sequence MDSFKVVLEGPAPWGFRLQGGKDF [PDLIM7], the protein stability index stood at 2.1 ± 0.24 under setting [1] and 2.52 ± 0.23 under setting [2].

Sequence MEHALREKAKAFWAMRRSYEAIAK [TRIM35] registered a protein stability index under setting [1] of 2.46 ± 0.12 and a protein stability index under setting [2] of 2.59 ± 0.45.

Regarding MEKFREDEGFIKEEERPLPEKEYQ [KCNA1], the protein stability index reads like this: under setting [1], 5.38 ± 0.32; under setting [2], 5.53 ± 0.31.

As to MERPLCSHLCSCLAMLALLSPLSL [LOXL2], the protein stability index under setting [1] was found to be 3.16 ± 0.19 and the protein stability index under setting [2] came to 3.46 ± 0.36.

As to MHLKPYWKLQKKEHPPEVSRETQR [FBXO34], the protein stability index stood at 3.58 ± 0.18 under setting [1] and 3.78 ± 0.33 under setting [2].

Take MIPGFRDLTSEDQIVLLKSSAIEV [VDR]: the protein stability index was found to be 2.33 ± 0.25 under setting [1] and 2.43 ± 0.18 under setting [2].

Take MKIFREKIEDFREEMWTFRGKIHA [CCDC70]: the protein stability index runs as follows: under setting [1], 2.07 ± 0.26; under setting [2], 2.39 ± 0.43.

As for MKSCKNLKGGLQEVAEQLELERIG [CNOT7], the protein stability index by setting is: under setting [1], 4.39 ± 0.14; under setting [2], 4.47 ± 0.18.

Consider MLIEELYAFMPARSQDPKKPSRV [CBY2], for which the protein stability index reads like this: (treatment: DMSO, c terminus: native) 2.57 ± 0.46; (treatment: MLN4924 1 uM, 8 h, c terminus: native) 2.55 ± 0.17.

Take MLTLPFDESVVMPESQMCRKFSRE [NEUROD6]: the protein stability index runs as follows: under setting [1], 3.65 ± 0.15; under setting [2], 3.77 ± 0.15.

Regarding MMCVAERTYKQRFLFAKLFSHITS [PHTF1], the protein stability index stood at 1.79 ± 0.71 under setting [1] and 2.24 ± 0.47 under setting [2].

With MMHGLKPLSLVKRTDLKDLIIFDK [CEP70], the protein stability index was determined as 2.37 ± 0.12 under setting [1] and 2.92 ± 0.47 under setting [2].

MNELQHDLDVVSDALAKVSRKPSI [TPH1]: the protein stability index reads like this: under setting [1], 4.27 ± 0.22; under setting [2], 4.42 ± 0.32.

MNHFTVNLNREEKIIREIDFYRED [TRIM55] gave a protein stability index under setting [1] of 3.46 ± 0.4 and a protein stability index under setting [2] of 3.61 ± 0.33.

Regarding MNTNSKEVLSLGVQVPEAWEELLT [ZSCAN9], the protein stability index by setting is: under setting [1], 3.08 ± 0.47; under setting [2], 3.52 ± 0.34.

Regarding MQALEIELQSQLSMKASLEGNLAE [KRT17], the protein stability index came to 3.59 ± 0.19 under setting [1] and 3.45 ± 0.42 under setting [2].

Take MRKGNTMQQFLQKALEILRKDFSE [FAM50A]: the protein stability index under setting [1] was found to be 3.09 ± 0.59 and the protein stability index under setting [2] amounted to 2.89 ± 0.46.

Regarding MRSPQNLHSQEDDDSSSESGSGNG [NOL4L], the protein stability index was 5.64 ± 0.21 under setting [1] and 5.51 ± 0.16 under setting [2].

With MSDSTWMSADPHLASSLSPSQDER [NOL4L], the protein stability index is 5.31 ± 0.19 under setting [1] and 5.18 ± 0.28 under setting [2].
